The text below walks through data of patent US20130149236A1 (MacroGenics, published 2013).

Assay [1] addresses T1, soluble B7H3-4Ig (human, UniProt Q5ZPR3 29-466).
T1 construct: Soluble or immobilized 4Ig form; also called 4Ig-B7-H3
T1 sequence: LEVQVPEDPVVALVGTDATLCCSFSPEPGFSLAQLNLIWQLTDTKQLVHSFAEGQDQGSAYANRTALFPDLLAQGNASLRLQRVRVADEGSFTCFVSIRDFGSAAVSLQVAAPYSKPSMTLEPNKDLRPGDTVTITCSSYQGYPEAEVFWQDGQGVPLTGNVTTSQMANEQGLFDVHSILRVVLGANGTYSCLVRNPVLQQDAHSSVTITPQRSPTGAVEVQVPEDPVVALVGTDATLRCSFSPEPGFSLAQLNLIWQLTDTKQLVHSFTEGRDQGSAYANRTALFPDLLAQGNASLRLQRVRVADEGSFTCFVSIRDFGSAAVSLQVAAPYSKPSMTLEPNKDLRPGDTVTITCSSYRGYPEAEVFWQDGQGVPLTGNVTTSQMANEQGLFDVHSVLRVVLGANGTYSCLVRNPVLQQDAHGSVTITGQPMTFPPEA
Description: Specificity.

Assay [2] concerns the target T2, soluble B7H3-2Ig (human, UniProt Q5ZPR3 29-466).
T2 construct: Soluble or immobilized 2Ig form; also called 2Ig-B7-H3; B7-H3 (2Ig form)
T2 sequence: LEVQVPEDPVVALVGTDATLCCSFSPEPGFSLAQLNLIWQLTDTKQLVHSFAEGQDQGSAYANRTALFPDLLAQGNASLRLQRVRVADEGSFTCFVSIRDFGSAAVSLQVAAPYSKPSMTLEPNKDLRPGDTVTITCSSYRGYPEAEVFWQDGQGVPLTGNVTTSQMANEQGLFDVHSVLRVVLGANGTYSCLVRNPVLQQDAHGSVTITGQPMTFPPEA
The assay is described as follows: Specificity.

B1: PRCA157 (antibody, IgG1, V domains shown)
VH: EVQQVESGGDLVKPGGSLKLSCAASGFTFSSYGMSWVRQTPDKRLEWVATINSGGSNTYYPDSLKGRFTISRDNAKNTLYLQMRSLKSEDTAMYYCARHDGGAMDYWGQGTSVTVSS
VL: DIQMTQSPASLSVSVGETVTITCRASESIYSYLAWYQQKQGKSPQLLVYNTKTLPEGVPSRFSGSGSGTQFSLKINSLQPEDFGRYYCQHHYGTPPWTFGGGTNLEIK
notes: murine mAb, IgG1/k
Turning to B1, the binding result in assay [1] and in assay [2] was “binds” in each case.

B2: BRCA84D (antibody, IgG1, V domains shown)
VH: DVQLVESGGGLVQPGGSRKLSCAASGFTFSSFGMHWVRQAPEKGLEWVAYISSDSSAIYYADTVKGRFTISRDNPKNTLFLQMTSLRSEDTAMYYCGRGRENIYYGSRLDYWGQGTTLTVSS
VL: DIAMTQSQKFMSTSVGDRVSVTCKASQNVDTNVAWYQQKPGQSPKALIYSASYRYSGVPDRFTGSGSGTDFTLTINNVQSEDLAEYFCQQYNNYPFTFGSGTKLEIK
notes: murine mAb, IgG1/k; fluorescein-labeled in the FACS MFI columns
Take B2: the binding result in assay [1] and in assay [2] was “binds” each time.
